Measurements: publication PMC9876794 (2022)
Changes are numbered by the printed parent chain.

B1: D028 (antibody, V domains shown)
VH: QVQLVQSGAEVKKPGASVKVSCKASGYTFISYYVHWVRQAPGQGLEWMGIINPSGGSTSYTQKFQGRVTMTRDTSTSTVYMELSSLRFEDTAVYYCATEGGMITENSSLHWGQGTLVTVSS
VL: DIQMTQSPSTLSASVGDRVTITCRASQSISSWLAWYQQKPGKAPKLLIYKASSLESGVPSRFSGSGSGTEFTLAISSLQPDEFATYYCQQYNSYPWTFGQGTKVEIK
B2: D033 (antibody, V domains shown)
VH: QVQLVESGGGVVQPGRSLRLSCAASGFTFSYYAMHWVRQAPGKGLEWVAVISYDGINKYYADSVKGRFTFSRDNSKNTLYLQMNSLSAEDTAVYYCARPYCGGDCYRAPDYWGQGTLVTVSS
VL: QSVLTQEPSLTVSPGGTVTLTCGSSTGAVTSSHYPYWFQQKPGQVPRTLIYDTSNKHSWTPARFSGSLLGGKAALTLSGAQPEDEADYYCLLSYSGVRRVFGGGTKLTVL
B3: D105 (antibody, V domains shown)
VH: QVQLQQWGAGLLKPSETLSLTCAVFGGSFSGYYWSWIRQPPGKGLEWIGEINHSGSTNYNPSLKSRVTLSVDTSKNQFSLELSSVTAADTAVYYCARVGPILFDYWGQGTLVTVSS
VL: QFVLTQPPSVSAAPGQKVTISCSGSSSNIGNNYVSWFQQLPGTAPKLLIYDNNMRPSRIPDRFSGSKSGTSATLGITGLQTGDEADYYCGTWDSSLSSVVFGGGTKLTVL
B4: D010 (antibody, V domains shown)
VH: EVQLVESGGGLVQPGRSLRLSCAAFGFTFDDYAMHWVRQAPGKGLEWVSGISWNSGSIGYADSVKGRFTISRDNAKNSLYLQMNSLRAEDTALYYCAKDITFRDGYPGAVDYWGQGTLVTVSS
VL: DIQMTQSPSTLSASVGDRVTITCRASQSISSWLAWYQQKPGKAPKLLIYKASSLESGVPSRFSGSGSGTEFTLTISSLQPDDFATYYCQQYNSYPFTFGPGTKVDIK
B5: C2729 (antibody, V domains shown)
VH: QLQLQESGPGLVKPSETLSLTCTVSGGSISSSSYYWGWIRQPPGKGLEWIGSIYYSGSTYYNPSLKSRVTISVDTSKNQFSLKLSSVTAADTAVYYCARRWIQLWSGFDPWGQGTLVTVSS
VL: DIQLTQSPSFLSASVGDRVTITCRASQGISSYLAWYQQKPGKAPKLLIYAASTLQSGVPSRFSGSGSGTEFTLTISSLQPEDFATYYCQQLNSYSITFGQGTRLEIK
B6: C2691 (antibody, V domains shown)
VH: EVQLVESGGGLVQPGRSLRLSCAASGFTFDDYAMHWVRQAPGKGLEWVSGISWNSGSIGYADSVKGRFTISRDNAKNSLYLQMNSLRAEDTALYYCAKDNRLDTMVRGGRVDAFDIWGQGTMVTVSS
VL: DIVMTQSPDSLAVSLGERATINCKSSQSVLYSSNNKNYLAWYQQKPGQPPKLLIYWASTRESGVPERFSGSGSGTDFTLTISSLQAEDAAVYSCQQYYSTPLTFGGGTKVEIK
B7: D182 (antibody, V domains shown)
VH: QVQLVESGGGVVQPGRSLRLSCAASGFTFSSYGMHWVRQAPGKGLEWVAVISYDGSNKYYADSVKGRFTISRDNSKNTLYLQMNSLRAEDTAVYYCAKATVLMVYAGFDYWGQGTLVTVSS
VL: NFMLTQPHSVSESPGKTVTISCTGSSGSIASNYVQWYQQRPGSAPTTVIYEDNQRPSGVPDRFSGSIDSSSNSASLTISGLKTEDEADYYCQSYDSSNRWVFGGGTKLTVL
B8: D016 (antibody, V domains shown)
VH: EVQLVESGGGLVQPGRSLRLSCAASGFTFDDYAMHWVRQAPGKGLEWVSGISWNSGSIGYADSVKGRFTISRDNAKNSLYLQMNSLRAEDMALYYCAKDAGIAAVNWYFDLWGRGTLVTVSS
VL: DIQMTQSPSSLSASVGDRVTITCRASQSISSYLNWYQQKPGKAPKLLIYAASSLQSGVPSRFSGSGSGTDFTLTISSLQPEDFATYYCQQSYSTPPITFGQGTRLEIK
B9: D035 (antibody, V domains shown)
VH: B8 VH with M91T, A100T, G101V, I102A, A103G, A104L, V105P, N106Y
VL: not shown
B10: D123 (antibody, V domains shown)
VH: EVQLVESGGGLVQPGRSLRLSCAASGFIFDDYAMHWVRQVPGKGLEWVSGISWNGGIIGQADSVKGRFTISRDNAKNSLYLQMNNLRAEDTALYFCTKDVGPGSPNYFDSWGQGTLVTVSS
VL: DIQMTQSPSTLSASVGDRVTITCRASQSISSWLAWYQQKPGKAPKFLIYKTSNLENGVPSRFSGSGSGTEFTLTISSLQPDDFATYFCQEYITNSRTFGQGTRLEIK
B11: C2732 (antibody, V domains shown)
VH: EVQLVESGGGLVQPGRSLRLSCAASGFTFDDYAMHWVRQAPGKGLEWVSGISWNSGSIGYADSVKGRFTISRDNAKNSLYLQMNSLRAEDTALYYCAKDIGRIAEGYGMDVWGQGTTVTVSS
VL: QSALTQPASVSESPGQSITISCTGTSSDIGGYNYVSWYQQHPGKAPKLMIYEVSNRPSGVSNRFSGSKSGNTASLTISGLQAEDEADYYCSSYTSSSTVVFGGGTKLTVL
B12: D097 (antibody, V domains shown)
VH: EVQLVQSGAEVKKPGESLKISCKGSGYSFTSYWIGWVRQMPGKGLEWMGIIYPGDSDTRYSPSFQGQVTISADKSISTAYLQWSSLKASDTAMYYCARLGDAGAFDIWGQGTMVTVSS
VL: QSVLTQPPSVSGAPGQRVTISCTGSSSNIGAGYDVHWYQQLPGTAPKLLIYGNSNRPSGVPDRFSGSKSGTSASLAITGLQAEDEADYYCQSYDSSLSGSKVFGGGTKLTVL
B13: D072 (antibody, V domains shown)
VH: QVQLQQWGAGLLKPSETLSLTCAVYGGSFSGHYWSWIRQSPGKGLEWIGEINHSGDTNYNASLKSRVTISVDTSKNQFSLQMTSVTAADTAVYYCARRRGIVLMRAVDVWGKGTTVTVSS
VL: EIVMTQSPATLSLSPGERATLSCRASQSVSNNYFSWYQQKPGQAPRLLIYGASARATGIPARFSGSGSGTEFTLTISSLQPEDIALYFCQQDFHPYTFGQGTKLEIK
B14: D168 (antibody, V domains shown)
VH: EVQLVESGGGLVKPGGSLRLSCAASGFTFSSYSMNWVRQAPGKGLEWVSSISSSSSYIYYADSVKGRFTISRDNAKNSLYLQMNSLRAEDTAVYYCARDLGTAIVYVREKYYYGMDVWGQGTTVTVSS
VL: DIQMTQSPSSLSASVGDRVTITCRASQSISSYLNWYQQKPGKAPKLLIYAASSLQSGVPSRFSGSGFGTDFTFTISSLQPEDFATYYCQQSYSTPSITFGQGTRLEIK
B15: D055 (antibody, V domains shown)
VH: EVQLVESGGGLVQPGGSLRLSCAASGFTFSSYDMHWVRQATGKGLEWVSAIGTAGDTYYPGSVKGRFTISRENAKNSLYLQMNSLRAGDTAVYYCARGAMVRGVIMVFDYWGQGTLVTVSS
VL: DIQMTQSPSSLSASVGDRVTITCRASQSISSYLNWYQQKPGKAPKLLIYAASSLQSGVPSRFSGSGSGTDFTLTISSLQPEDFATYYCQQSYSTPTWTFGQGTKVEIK
B16: D161 (antibody, V domains shown)
VH: EVQLLESGGGLVQPGGSLRLSCAASGFTFSSYAMSWVRQAPGKGLEWVSAISGSGGSTSYADSVKGRFTISRDNSKNTLYLQMNSLRVEDTAVYYCAKGPRVTTEYFEYWGQGTLVTVSS
VL: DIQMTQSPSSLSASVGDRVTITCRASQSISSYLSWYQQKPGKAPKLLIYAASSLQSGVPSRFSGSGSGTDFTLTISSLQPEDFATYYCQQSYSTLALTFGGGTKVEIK
B17: D023 (antibody, V domains shown)
VH: EVQLVQSGAEVKKPGESLKISCKGSGYSFTSYWIGWVRQMPGKGLEWMGIIYPGDSDTRYSPSFQGQVTISADKSISTAYLQWSSLKASDTAMYYCAISYSGSYSGAFDIWGQGTMVTVSS
VL: not shown
B18: D052 (antibody, V domains shown)
VH: EVQLVESGGGLVQPGGSLRLSCAASGFTFSSYDMHWVRQATGKGLEWVSAIGTAGDTYYPGSVKGRFTISRENAKNSLYLQMNSLRAGDTAVYYCARVGYSLYGDYKSYWYFDLWGRGTLVTVSS
VL: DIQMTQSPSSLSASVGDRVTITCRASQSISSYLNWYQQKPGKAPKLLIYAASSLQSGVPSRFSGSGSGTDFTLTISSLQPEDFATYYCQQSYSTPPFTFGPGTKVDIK
B19: D071 (antibody, V domains shown)
VH: EVQLVESGGGLVQPGRSLRLSCTASGFTFGDYAMSWFRQAPGKGLEWLGFIKSKSYGGTTEYAASVKGRFTISREDSKSIAYLQMNSLKTEDTAVYYCTRTIFGVVHFDYWGQGTLVTVSS
VL: SYVLTQPPSVSVAPGKTARITCERNNIGSKSVHWYQQKPGRAPVLVIYYDSDRPSGIPERFSGSNSENTATLTISRVEAGDEADYYCQVWNSSSDHPVFGGGTKLTVL
B20: D132 (antibody, V domains shown)
VH: EVQLVESGGGLVQPGRSLRLSCAASGFTFDDYAMHWVRQAPGKGLEWVSGISWNSGSIGYADSVKGRFTISRDNAKNSLYLQMNSLRNDDTALYYCAKGRIGGNYYLLDYWGQGTLVTVSS
VL: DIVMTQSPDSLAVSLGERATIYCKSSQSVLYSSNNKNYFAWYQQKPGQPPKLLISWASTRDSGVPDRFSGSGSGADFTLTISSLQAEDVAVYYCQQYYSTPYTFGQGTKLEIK
B21: D160 (antibody, V domains shown)
VH: QVQLVQSGAEVKKPGASVKVSCKASGYTFTTYGFSWVRQAPGQGLEWMGWISGYNGNTHYAQKVQGRVTMTTDTSTTTAYMELRSLTYDDTAVYYCARAGDDEANAFDIWGQGTMVTVSS
VL: DIQMTQSPSTLSASVGDRVTITCRASQTISIWLAWYQQKPGKAPKLLIYKASKIQSGVPSRFSGSESGTEFTLTISSLQPDDFATYYCQQYNSYPLTFGGGTKVESK
B22: D142 (antibody, V domains shown)
VH: QVQLVESGGGVVQPGRSLRLSCAASGFTFSSYGMHWVRQAPGKGLEWVAVISYDGSNKYYADSVKGRFTISRDNSKNTLYLQMNSLRAEDTAVYYCAKKPTMYYYDSSGYYYFDYWGQGTLVTVSS
VL: QFVLTQPPSVSGAPGQRVTISCTGSSSNIGAGYDVHWYQQLPGTAPKLLIYGNSNRPSGVPDRFSGSKSGTSASLAITGLQAEDEADYYCQSYDSSLSGYVFGTGTKVTVL
B23: D021 (antibody, V domains shown)
VH: QVQLVESGGGVVQPGRSLRLSCAASGFTFSSYGMHWVRQAPGKGLEWVAVISYDGSNKYYADSVKGRFTISRDNSKNTLYLQMNSLRAEDTAVYYCAKAGQYGDYTHSGDYWGQGTLVTVSS
VL: DIQMTQSPSSLSASVGDRVTITCQASQDISNYLNWYQQKPGKAPKLLIYDASNLETGVPSRFSGSGSGTDFTFTISSLQPEDIATYYCQQYDNLPIAFGQGTRLEIK
B24: D163 (antibody, V domains shown)
VH: QVQLVQSGAEVKKPGASVKVSCKASGYTFTSYYMHWVRQAPGQGLEWMGIINPSGGSTSYAQKFQGRVTMTRDTSTSTVYMELSSLRSEDTAVYYCARDFSLIPATAMVLDYWGQGTLVTVSS
VL: DIQMTQSPVSLSASVGDRVTITCRASQSISSWLAWYQQKPGKAPKLLIYKASSLESGVPSRFSGSGSGTEFTLTISSLQPDDFATYYCQQYNSYASFGQGTKVEIK
B25: D143 (antibody, V domains shown)
VH: EVQLVESGGGLVQPGGSLRLSCAASGFTFSSYSMNWVRQAPGKGLEWVSYISSSSSTIYYADSVKGRFTISRDNAKNSLYLQMNSLRDEDTAVYYCASHYGAPTSYYYYGMDVWGQGTTVTVSS
VL: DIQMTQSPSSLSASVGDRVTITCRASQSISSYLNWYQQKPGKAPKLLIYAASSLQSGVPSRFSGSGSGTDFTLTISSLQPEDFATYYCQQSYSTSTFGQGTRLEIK
B26: C2694 (antibody, V domains shown)
VH: EVQLVESGGGLVQPGRSLRLSCAASGFTFDDYAMHWVRQAPGKGLEWVSGISWNSGSIGYADSVKGRFTISRDNAKNSLYLQMNSLRAEDTALYYCAKDSLLWYDSSGYYHYYYYGMDVWGQGTTVTVSS
VL: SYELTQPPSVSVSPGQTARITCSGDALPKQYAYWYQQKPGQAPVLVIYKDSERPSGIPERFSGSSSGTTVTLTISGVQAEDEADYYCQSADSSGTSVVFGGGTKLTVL

molecular target: SARS-CoV-2 spike RBD (WT) (Severe acute respiratory syndrome …, UniProt P0DTC2); experiment: ELISA; design: unit not given here

Row | Binder | binding score
1 | B1 | > 10000
2 | B2 | > 10000
3 | B3 | 1340
4 | B4 | > 10000
5 | B5 | > 10000
6 | B6 | > 10000
7 | B7 | 2500
8 | B8 | 5250
9 | B9 | > 10000
10 | B10 | 7780
11 | B11 | 376
12 | B12 | > 10000
13 | B13 | > 10000
14 | B14 | 4730
15 | B15 | 9930
16 | B16 | > 10000
17 | B17 | > 10000
18 | B18 | 49
19 | B19 | > 10000
20 | B20 | 9490
21 | B21 | 491
22 | B22 | > 10000
23 | B23 | 4670
24 | B24 | > 10000
25 | B25 | 39.5
26 | B26 | > 10000
